Measurements published in patent US20160009800A1.
Positions count from the first letter of the chain named. Blank lines part the entries; values can stand above or below the binder they belong to.

Assays:
[1] = biological target: mouse insulin receptor (mouse) (UniProt P15208); assay: FACS, serum-starved CHO-K1 cells expressing mouse INSR, no insulin [cont'd]
[2] = biological target: mouse insulin receptor (mouse) (UniProt P15208); assay: FACS, serum-starved CHO-K1 cells expressing mouse INSR, no insulin
[3] = biological target: mouse insulin receptor complexed with human insulin (mouse; human) (UniProt P15208); assay: FACS, serum-starved CHO-K1 cells expressing mouse INSR, with insulin
[4] = biological target: human insulin receptor complexed with human insulin (human) (UniProt P06213); assay: FACS, serum-starved CHO-K1 cells expressing human INSR, with insulin
[5] = biological target: human insulin receptor complexed with human insulin (human) (UniProt P06213); assay: FACS, CHO-K1 human INSR cells, signal with insulin divided by signal without insulin
[6] = biological target: human insulin receptor complexed with human insulin (human) (UniProt P06213); assay: FACS competition on hINSR8-CHOK1 cells with insulin; competitor Ab019
[7] = biological target: human insulin receptor (human) (UniProt P06213); assay: FACS, serum-starved CHO-K1 cells expressing human INSR, no insulin
[8] = biological target: mouse insulin receptor complexed with human insulin (mouse; human) (UniProt P15208); assay: FACS, CHO-K1 mouse INSR cells, signal with insulin divided by signal without insulin
[9] = biological target: human insulin receptor complexed with human insulin (human) (UniProt P06213); assay: FACS, serum-starved CHO-K1 cells expressing human INSR, with insulin [cont'd]
[10] = biological target: human insulin receptor complexed with human insulin (human) (UniProt P06213); assay: FACS, CHO-K1 human INSR cells, signal with insulin divided by signal without insulin [cont'd]

- FACS area under log transformed data MFI [4]: 134
- FACS area under log transformed data MFI ratio (+insulin/-insulin) [5]: 0.3
B3: Ab052 (antibody, IgG2, V domains shown)
VH: EVQLVQSGAEVKKPGESLKISCKGSGYRFTSYWIGWVRQMPGRGLEWMGIIYPGDSDTRYSPSFQGQVTISVDKSISTAYLQWSSLKASDTAMYYCATHHASGRGLDPWGQGTLVTVSS
VL: QAMLTQPASLSASPGASASLTCTLRSGINVVAYNIYWYRQKSGSPPQSVLRYKSDSDSERDSGVPSRFSGSKDVSANAGILLISGLQSEDEADYYCLIWHNSAWVFGGGTQLTVL

- percent competition [6]: < 30%
- FACS area under log transformed data MFI [4]: 59
- FACS area under log transformed data MFI ratio (+insulin/-insulin) [5]: 0.29
B4: Ab061 (antibody, IgG2, V domains shown)
VH: QMQLVQSGAEVKKTGESLKISCQGYGYRFTDNWIGWVRQMPGRGLEWMGIIYPGDSETRYSPSFQGQVTISADKSISTAYLEWSSLKASDTAMYYCARHAPLAVAGMALGDWGQGTLVTVSS
VL: QTVVTQEPSFSVSPGGTVTLTCGLSSGSVSTGYSPGWYQQTPGQAPRTLVYNTNTRSSGVPDRFSGSILGNKAALTITGAQADDESDYYCALYMGSGTYVFGGGTKLTVL

- FACS area under log transformed data MFI [2]: 21
- FACS area under log transformed data MFI [3]: 41
- FACS area under log transformed data MFI ratio (+insulin/-insulin) [8]: 1.98
B6: Ab056 (antibody, IgG2, V domains shown)
VH: QVQLVQSGSEVKKPGASVKVSCKASGYTFTNSYMHWVRQAPGQGLEWMGIINPSAGTSYAQKFQGRVTMTRDTSTSTVYMELSSLKSEDTAVYYCARDVGWLPGDYWGQGTLVTVSS
VL: QSALTQPASVSESPGQSITISCTGTGSDIGTYNLVSWYQHHPGKAPKLMIYEVTKRPSGVSNRFSGSKSGNTASLTISGLQAEDEADYYCSSYTSSSTLYVFGTGTKLTVL

- FACS area under log transformed data MFI [9]: 194
- FACS area under log transformed data MFI ratio (+insulin/-insulin) [10]: 0.4
B8: Ab071 (antibody, IgG2, V domains shown)
VH: EVQLVQSGAEVKKPGESLKISCKGSGYSFTSYWIGWVRQMPGKGLEWMGIIYPGDSDTRYSPSFQGQVTISADKSISTAYLQWSSLKASDTAMYYCARWDAGYSPWGQGTLVTVSS
VL: SSELTQDPAVSVALGQTVRITCQGDSLRSYYASWYQQKPGQAPVLVFYGKNNRPSGIPGRFSGSKSGNTASLTITGAQAEDEADYYCNSRDSSGNHWVFGGGTKLTVL

- FACS area under log transformed data MFI [9]: 236
- FACS area under log transformed data MFI ratio (+insulin/-insulin) [10]: 0.59
B9: Ab082 (antibody, IgG2, V domains shown)
VH: QMQLVQSGAEVKKPGESLKISCKGSGYSFTSYWIGWVRQMPGKGLEWMGIIYPGDSDTRYSPSFQGQVTISADKSISTAYLQWSSLKASDTAMYYCARWGPDAFDIWGQGTMVTVSS
VL: EIVLTQSPDFQSVTPKETVTISCRASQNIGVSLHWYQQKPDQSPKVLIKYASQSLSGVPSRFSGTGSGTDFTLTIKSLEAEDAATYYCLQTSSLPWTFGQGTKVEIK

- FACS area under log transformed data MFI [4]: 81
- FACS area under log transformed data MFI ratio (+insulin/-insulin) [5]: 0.32
B10: Ab050 (antibody, IgG2, V domains shown)
VH: QVQLVQSGAELKKPGATVKISCKVSGYTFGDYHMHWVKQAPGKGLEWMGLVDPENGETEYGEKFQDRITMAADTSTDTAYMELSSLRSEDTAVYYCARSPSSSGYFRVDGFDIWGQGTMVTVSS
VL: NFMLTQPHSVSESPGKTVSISCTGSSGSIGSNYVQWYQQRPGSAPTTVIYEDNQRPSGVPDRFSGSIDSSSNSASLTISGLKTEDEADYYCQSYYNSNVVFGGGTKLTVL

- FACS area under log transformed data MFI [9]: 150
- FACS area under log transformed data MFI ratio (+insulin/-insulin) [10]: 0.53
B12: Ab070 (antibody, IgG2, V domains shown)
VH: EVQLVQSGAEVKKPGESLKISCKGSGYSFTSYWIGWVRQMPGKGLEWMGIIYPGDSDTRYSPSFQGQVTISADKSISTSYLQWSSLRASDTAMYYCARLGSGWYGNDYWGQGTLVTVSS
VL: B8 VL with A32T, F47I, Y48F, G59D, K65S, H96Y, W97A, K104Q

The next lines start with the binder.

B1: Ab078 (antibody, IgG2, V domains shown)
VH: QVQLVQSGGGLVQPGGSLRLSCAASGFTFSSYSMNWVRQAPGKGLEWVSSISSSSSYIYYADSVKGRFTISRDNAKNSLYLQMNSLRAEDTAVYYCARDQGGELLGFTGYFDYWGQGTLVTVSS
VL: DIQLTQSPSSLSASVGDRVTITCRASQGISSALAWYQQKPGKAPKVLIYDASSLERGVPSRFSGSGTGTDFTLTISSLQPEDFASYYCHQFNSYPDTFGQGTRLEIK
- FACS area under log transformed data MFI [1]: 12

B2: Ab059 (antibody, IgG2, V domains shown)
VH: EVQLVQSGAEVKKPGSSVKVSCKASGGTFSSYAISWVRQAPGQGLEWMGRIIPIFGIANYAQKFQGRVTITADKSTSTAYMELSSLRSEDTAVYYCAREPDYDFWNDAFDIWGQGTMVTVSS
VL: QAVLTQPASLSASPGASASLTCTLRSDISVGVYRISWYQQKPGSPPQYLLSYNSDSNNHQGSGVPSRFSGSKDASANAGILLISGLQSEDEADYYCMIWHINAWVFGGGTKVTVL
- FACS area under log transformed data MFI [2]: 14
- FACS area under log transformed data MFI [3]: 13

B5: Ab057 (antibody, IgG2, V domains shown)
VH: B4 VH with T14P, Q23K, T30S, E82Q
VL: QTVVTQEPSFSVSPGGTVTLTCGLTSGSVSTSYYPSWYQQTPGQAPRMLVHSTSTRYSGVPDRFSGSILGNKAALTITGAQADDESDYYCALYMGGGIYVFGGGTQLTVL
- FACS area under log transformed data MFI [4]: 87
- FACS area under log transformed data MFI [7]: 155
- FACS area under log transformed data MFI ratio (+insulin/-insulin) [5]: 0.56

B7: Ab065 (antibody, IgG2, V domains shown)
VH: B8 VH with E1Q, W99H, D100E, A101L, Y103I, S104D, P105Y
VL: QAGLTQPPSVSKGLRQTATLTCTGDNNIVGDQGAAWLQQHQGHPPKLLSFRNNSRPSGISERFSASRSRNTASLTITRLQPEDAADYYCSAWDSFLSAWVFGGGTKLTVL
- FACS area under log transformed data MFI [4]: 57
- FACS area under log transformed data MFI ratio (+insulin/-insulin) [5]: 0.28

B11: Ab069 (antibody, IgG2, V domains shown)
VH: B12 VH with T78I, S79A, R87K, S101R, W103Y, N106M, Y108V, L114T
VL: B8 VL with F47I, G59D, K65R, W97V, L105V
- FACS area under log transformed data MFI [4]: 146
- FACS area under log transformed data MFI ratio (+insulin/-insulin) [5]: 0.41

B13: Ab072 (antibody, IgG2, V domains shown)
VH: QMQLVQSGAEVKKPGESLKISCKGSGYSFTGYWIGWVRQMPGKGLEWMGIIYPGDSDTRYSPSFQGQVTISADKSISTAYLQWSSLKVSDTAMYYCGRISTPYAFDIWGQGTMVTVSS
VL: SYVLTQPPSASGTPGQRVTISCSGSNSNIGSNFVTWYQQLPGAAPKLLIYTNSQRPSGVPDRFSGSRSGTSASLAISGLQSEDEADYFCAAWDDSLNGPVFGGGTQLTVL
- FACS area under log transformed data MFI [9]: 84
- FACS area under log transformed data MFI ratio (+insulin/-insulin) [10]: 0.37
